# In patent US20030166587:
# Changes are numbered by the printed parent chain.
# T1: IKK-phosphorylated IκBα in the IκBα/NF-κB complex
# T1 chain: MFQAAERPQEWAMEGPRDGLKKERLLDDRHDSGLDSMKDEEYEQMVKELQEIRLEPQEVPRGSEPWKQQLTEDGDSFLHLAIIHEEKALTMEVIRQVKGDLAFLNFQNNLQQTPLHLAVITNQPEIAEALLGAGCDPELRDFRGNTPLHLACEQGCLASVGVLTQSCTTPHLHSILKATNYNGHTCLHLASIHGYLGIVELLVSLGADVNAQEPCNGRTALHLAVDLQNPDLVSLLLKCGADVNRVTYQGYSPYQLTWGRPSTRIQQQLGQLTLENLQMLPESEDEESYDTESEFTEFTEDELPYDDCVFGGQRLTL
# B1: human β-TrCP, FLAG-tagged (protein)
# chain: MDPAEAVLQEKALKFMNSSEREDCNNGEPPRKIIPEKNSLRQTYNSCARLCLNQETVCLASTAMKTENCVAKTKLANGTSSMIVPKQRKLSASYEKEKELCVKYFEQWSESDQVEFVEHLISQMCHYQHGHINSYLKPMLQRDFITALPARGLDHIAENILSYLDAKSLCAAELVCKEWYRVTSDGMLWKKLIERMVRTDSLWRGLAERRGWGQYLFKNKPPDGNAPPNSFYRALYPKIIQDIETIESNWRCGRHSLQRIHCRSETSKGVYCLQYDDQKIVSGLRDNTIKIWDKNTLECKRILTGHTGSVLCLQYDERVIITGSSDSTVRVWDVNTGEMLNTLIHHCEAVLHLRFNNGMMVTCSKDRSIAVWDMASPTDITLRRVLVGHRAAVNVVDFDDKYIVSASGDRTIKVWNTSTCEFVRTLNGHKRGIACLQYRDRLVVSGSSDNTIRLWDIECGACLRVLEGHEELVRCIRFDNKRIVSGAYDGKIKVWDLVAALDPRAPAGTLCLRTLVEHSGRVFRLQFDEFQIVSSSHDDTILIWDFLNDPAAQAEPPRSPSRTYTYISR
# B2: mouse β-TrCP, FLAG-tagged (protein)
# chain: B1 chain with L52I, A60T, T73A, G224E, N295S, T336A, V498M, Q553H
# B3: human β-TrCP with a deletion of the F box region residues 122-168, FLAG-tagged (protein)
# chain: MDPAEAVLQEKALKFMNSSEREDCNNGEPPRKIIPEKNSLRQTYNSCARLCLNQETVCLASTAMKTENCVAKTKLANGTSSMIVPKQRKLSASYEKEKELCVKYFEQWSESDQVEFVEHLISQMCHYQHGHINSYLKPMLQRDFITERMVRTDSLWRGLAERRGWGQYLFKNKPPDGNAPPNSFYRALYPKIIQDIETIESNWRCGRHSLQRIHCRSETSKGVYCLQYDDQKIVSGLRDNTIKIWDKNTLECKRILTGHTGSVLCLQYDERVIITGSSDSTVRVWDVNTGEMLNTLIHHCEAVLHLRFNNGMMVTCSKDRSIAVWDMASPTDITLRRVLVGHRAAVNVVDFDDKYIVSASGDRTIKVWNTSTCEFVRTLNGHKRGIACLQYRDRLVVSGSSDNTIRLWDIECGACLRVLEGHEELVRCIRFDNKRIVSGAYDGKIKVWDLVAALDPRAPAGTLCLRTLVEHSGRVFRLQFDEFQIVSSSHDDTILIWDFLNDPAAQAEPPRSPSRTYTYISR
# Target: T1, IKK-phosphorylated IκBα in the …
row,Protein,in vitro ubiquitination of pIκBα in the presence of E1 and E2 (UBC5C)
1,B1,"the wild type β-TrCP proteins facilitated the ubiquitination of pIκBα, but not of the non-phosphorylated IκBα"
2,B2,"the wild type β-TrCP proteins facilitated the ubiquitination of pIκBα, but not of the non-phosphorylated IκBα"
3,B3,"failed to promote ubiquitination (lanes 7 and 8), in spite of its binding capacity"
